The values below come from US20250145680A1 (REMD BIOTHERAPEUTICS, published 2025).

This assay deals with T1, Type I IFN receptor (IFNAR) (UniProt P17181 28-557; P48551 27-515, limits assumed).
T1 sequence (looked up) 1: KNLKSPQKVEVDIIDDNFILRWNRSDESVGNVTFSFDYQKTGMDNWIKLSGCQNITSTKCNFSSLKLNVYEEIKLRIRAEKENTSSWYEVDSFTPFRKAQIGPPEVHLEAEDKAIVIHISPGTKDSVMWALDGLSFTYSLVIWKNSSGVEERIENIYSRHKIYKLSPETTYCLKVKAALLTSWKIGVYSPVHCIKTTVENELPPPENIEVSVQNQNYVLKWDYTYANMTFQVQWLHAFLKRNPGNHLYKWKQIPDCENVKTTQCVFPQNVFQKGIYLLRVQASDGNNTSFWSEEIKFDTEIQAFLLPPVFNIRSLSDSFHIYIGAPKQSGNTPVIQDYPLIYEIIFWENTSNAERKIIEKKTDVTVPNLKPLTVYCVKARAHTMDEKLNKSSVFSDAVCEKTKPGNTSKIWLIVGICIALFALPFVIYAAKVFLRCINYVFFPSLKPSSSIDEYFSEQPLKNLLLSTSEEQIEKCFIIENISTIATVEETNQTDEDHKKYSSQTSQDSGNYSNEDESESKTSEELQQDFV
T1 sequence (looked up) 2: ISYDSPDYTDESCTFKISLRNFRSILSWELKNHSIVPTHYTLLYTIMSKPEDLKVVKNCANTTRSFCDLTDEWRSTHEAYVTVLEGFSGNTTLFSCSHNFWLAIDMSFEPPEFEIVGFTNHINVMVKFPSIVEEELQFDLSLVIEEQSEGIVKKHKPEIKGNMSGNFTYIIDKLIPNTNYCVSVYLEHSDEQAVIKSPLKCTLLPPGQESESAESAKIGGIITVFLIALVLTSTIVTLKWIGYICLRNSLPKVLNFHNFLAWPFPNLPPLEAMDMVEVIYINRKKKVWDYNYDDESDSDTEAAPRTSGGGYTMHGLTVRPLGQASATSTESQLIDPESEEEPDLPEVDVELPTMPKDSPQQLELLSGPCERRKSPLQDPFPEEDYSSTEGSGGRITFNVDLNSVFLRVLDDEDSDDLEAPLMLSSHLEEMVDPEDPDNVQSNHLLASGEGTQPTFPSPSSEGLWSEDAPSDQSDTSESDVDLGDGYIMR
The assay is described as follows: cell-based or functional assay.

B1: anti-PD-L1 Ab-con-IFN-α heterodimeric fusion molecule (FP-19), con-IFN-α (R150A), G8 linker (other)
light: DIQMTQSPSSVSASVGDRVTITCKTSQDVNTAVAWYQQKPGQAPRLLIYWASTRHTGVPDRFSGSGSGTDFTLTISSLQAEDVAVYYCQQHYNTPLTFGGGTKLEIKRTVAAPSVFIFPPSDEQLKSGTASVVCLLNNFYPREAKVQWKVDNALQSGNSQESVTEQDSKDSTYSLSSTLTLSKADYEKHKVYACEVTHQGLSSPVTKSFNRGEC
heavy 1: QMQLVQSGAEVKKTGSSVKVSCKASGYTFTSYSINWVRQAPGKGLEWVAYFYVGNGYTDYNEKFKGRVTMTRDTSTSTVYMELSSLRSEDTAVYYCARGGLPYYFDYWGQGTLVTVSSASTKGPSVFPLAPCSRSTSESTAALGCLVKDYFPEPVTVSWNSGALTSGVHTFPAVLQSSGLYSLSSVVTVPSSSLGTKTYTCNVDHKPSNTKVDKRVESKYGPPCPPCPAPEFLGGPSVFLFPPKPKDTLMISRTPEVTCVVVDVSQEDPEVQFNWYVDGVEVHNAKTKPREEQFNSTYRVVSVLTVLHQDWLNGKEYKCKVSNKGLPSSIEKTISKAKGQPREPQVCTLPPSQEEMTKNQVSLSCAVKGFYPSDIAVEWESNGQPENNYKTTPPVLDSDGSFFLVSRLTVDKSRWQEGNVFSCSVMHEALHNHYTQKSLSLSLGGGGGGGGGCDLPQTHSLGNRRALILLAQMRRISPFSCLKDRHDFGFPQEEFDGNQFQKAQAISVLHEMIQQTFNLFSTKDSSAAWDESLLEKFYTELYQQLNDLEACVIQEVGVEETPLMNVDSILAVKKYFQRITLYLTEKKYSPCAWEVVRAEIMASFSLSTNLQERLRRKE
heavy 2: QMQLVQSGAEVKKTGSSVKVSCKASGYTFTSYSINWVRQAPGKGLEWVAYFYVGNGYTDYNEKFKGRVTMTRDTSTSTVYMELSSLRSEDTAVYYCARGGLPYYFDYWGQGTLVTVSSASTKGPSVFPLAPCSRSTSESTAALGCLVKDYFPEPVTVSWNSGALTSGVHTFPAVLQSSGLYSLSSVVTVPSSSLGTKTYTCNVDHKPSNTKVDKRVESKYGPPCPPCPAPEFLGGPSVFLFPPKPKDTLMISRTPEVTCVVVDVSQEDPEVQFNWYVDGVEVHNAKTKPREEQFNSTYRVVSVLTVLHQDWLNGKEYKCKVSNKGLPSSIEKTISKAKGQPREPQVYTLPPCQEEMTKNQVSLWCLVKGFYPSDIAVEWESNGQPENNYKTTPPVLDSDGSFFLYSRLTVDKSRWQEGNVFSCSVMHEALHNHYTQKSLSLSLG
On to B1, for which the “EC50 ratio1 (EC50 of FP/EC50 of IFN-α2b) on PD-L1-negative cells; IFN-α reporter assay (SEAP), PD-L1 blocked with REMD290” value was found to be 33.9 fold.

B2: anti-PD-L1 Ab-con-IFN-α heterodimeric fusion molecule (FP-20), con-IFN-α (A146D and R150A), G8 linker (other)
light: DIQMTQSPSSVSASVGDRVTITCKTSQDVNTAVAWYQQKPGQAPRLLIYWASTRHTGVPDRFSGSGSGTDFTLTISSLQAEDVAVYYCQQHYNTPLTFGGGTKLEIKRTVAAPSVFIFPPSDEQLKSGTASVVCLLNNFYPREAKVQWKVDNALQSGNSQESVTEQDSKDSTYSLSSTLTLSKADYEKHKVYACEVTHQGLSSPVTKSFNRGEC
heavy 1: QMQLVQSGAEVKKTGSSVKVSCKASGYTFTSYSINWVRQAPGKGLEWVAYFYVGNGYTDYNEKFKGRVTMTRDTSTSTVYMELSSLRSEDTAVYYCARGGLPYYFDYWGQGTLVTVSSASTKGPSVFPLAPCSRSTSESTAALGCLVKDYFPEPVTVSWNSGALTSGVHTFPAVLQSSGLYSLSSVVTVPSSSLGTKTYTCNVDHKPSNTKVDKRVESKYGPPCPPCPAPEFLGGPSVFLFPPKPKDTLMISRTPEVTCVVVDVSQEDPEVQFNWYVDGVEVHNAKTKPREEQFNSTYRVVSVLTVLHQDWLNGKEYKCKVSNKGLPSSIEKTISKAKGQPREPQVCTLPPSQEEMTKNQVSLSCAVKGFYPSDIAVEWESNGQPENNYKTTPPVLDSDGSFFLVSRLTVDKSRWQEGNVFSCSVMHEALHNHYTQKSLSLSLGGGGGGGGGCDLPQTHSLGNRRALILLAQMRRISPFSCLKDRHDFGFPQEEFDGNQFQKAQAISVLHEMIQQTFNLFSTKDSSAAWDESLLEKFYTELYQQLNDLEACVIQEVGVEETPLMNVDSILAVKKYFQRITLYLTEKKYSPCAWEVVRDEIMASFSLSTNLQERLRRKE
heavy 2: QMQLVQSGAEVKKTGSSVKVSCKASGYTFTSYSINWVRQAPGKGLEWVAYFYVGNGYTDYNEKFKGRVTMTRDTSTSTVYMELSSLRSEDTAVYYCARGGLPYYFDYWGQGTLVTVSSASTKGPSVFPLAPCSRSTSESTAALGCLVKDYFPEPVTVSWNSGALTSGVHTFPAVLQSSGLYSLSSVVTVPSSSLGTKTYTCNVDHKPSNTKVDKRVESKYGPPCPPCPAPEFLGGPSVFLFPPKPKDTLMISRTPEVTCVVVDVSQEDPEVQFNWYVDGVEVHNAKTKPREEQFNSTYRVVSVLTVLHQDWLNGKEYKCKVSNKGLPSSIEKTISKAKGQPREPQVYTLPPCQEEMTKNQVSLWCLVKGFYPSDIAVEWESNGQPENNYKTTPPVLDSDGSFFLYSRLTVDKSRWQEGNVFSCSVMHEALHNHYTQKSLSLSLG
Consider B2, for which the “EC50 ratio1 (EC50 of FP/EC50 of IFN-α2b) on PD-L1-negative cells; IFN-α reporter assay (SEAP), PD-L1 blocked with REMD290” value is 1140 fold.
